Experimental data as given in FireProtDB (doi:10.1110/ps.0205902).

Settings: Aspergillus oryzae (strain ATCC 42149 / RIB 40), pH 3, 25 °C, Urea, CD, Glycine-HCl 3 mM, reversible: yes, whole UniProt chain shown

B1: Guanyl-specific ribonuclease T1 wild type, P00651 (protein)
chain: MMYSKLLTLTTLLLPTALALPSLVERACDYTCGSNCYSSSDVSTAQAAGYQLHEDGETVGSNSYPHKYNNYEGFDFSVSSPYYEWPILSSGDVYSGGSPGADRVVFNENNQLAGVITHTGASGNNFVECT
denaturant m value (Na2SO4 0.01 M): 1.67 kcal/mol/M
denaturant midpoint (higher = more stable) (Na2SO4 0.01 M): 2.55 M
unfolding free energy (Na2SO4 0.01 M): 4.2 kcal/mol
denaturant m value (Na2SO4 0.20 M): 1.52 kcal/mol/M
denaturant midpoint (higher = more stable) (Na2SO4 0.20 M): 4.21 M
unfolding free energy (Na2SO4 0.20 M): 6.38 kcal/mol
denaturant m value (Na2SO4 0.50 M): 1.5 kcal/mol/M
denaturant midpoint (higher = more stable) (Na2SO4 0.50 M): 5.28 M
unfolding free energy (Na2SO4 0.50 M): 7.91 kcal/mol
denaturant m value (Na2SO4 0.80 M): 1.47 kcal/mol/M
denaturant midpoint (higher = more stable) (Na2SO4 0.80 M): 5.81 M
unfolding free energy (Na2SO4 0.80 M): 8.56 kcal/mol
denaturant m value (NaCl 0.01 M): 2.29 kcal/mol/M
denaturant midpoint (higher = more stable) (NaCl 0.01 M): 1.43 M
unfolding free energy (NaCl 0.01 M): 3.26 kcal/mol
denaturant m value (NaCl 0.25 M): 1.85 kcal/mol/M
denaturant midpoint (higher = more stable) (NaCl 0.25 M): 2 M
unfolding free energy (NaCl 0.25 M): 3.69 kcal/mol
denaturant m value (NaCl 0.50 M): 1.8 kcal/mol/M
denaturant midpoint (higher = more stable) (NaCl 0.50 M): 2.49 M
unfolding free energy (NaCl 0.50 M): 4.48 kcal/mol
denaturant m value (NaCl 0.75 M): 1.75 kcal/mol/M
denaturant midpoint (higher = more stable) (NaCl 0.75 M): 2.91 M
unfolding free energy (NaCl 0.75 M): 5.07 kcal/mol
denaturant m value (NaCl 1.00 M): 1.64 kcal/mol/M
denaturant midpoint (higher = more stable) (NaCl 1.00 M): 3.21 M
unfolding free energy (NaCl 1.00 M): 5.28 kcal/mol
denaturant m value (NaSCN 0.01 M): 2.21 kcal/mol/M
denaturant midpoint (higher = more stable) (NaSCN 0.01 M): 1.44 M
unfolding free energy (NaSCN 0.01 M): 3.05 kcal/mol
denaturant m value (NaSCN 0.05 M): 1.87 kcal/mol/M
denaturant midpoint (higher = more stable) (NaSCN 0.05 M): 1.55 M
unfolding free energy (NaSCN 0.05 M): 2.91 kcal/mol
denaturant m value (NaSCN 0.25 M): 1.23 kcal/mol/M
denaturant midpoint (higher = more stable) (NaSCN 0.25 M): 1.5 M
unfolding free energy (NaSCN 0.25 M): 1.85 kcal/mol
denaturant m value (NaSCN 0.50 M): 1.03 kcal/mol/M
denaturant midpoint (higher = more stable) (NaSCN 0.50 M): 1.38 M
unfolding free energy (NaSCN 0.50 M): 1.43 kcal/mol
denaturant m value (NaSCN 0.75 M): 1.1 kcal/mol/M
denaturant midpoint (higher = more stable) (NaSCN 0.75 M): 1.04 M
unfolding free energy (NaSCN 0.75 M): 1.14 kcal/mol
denaturant m value: 2.24 kcal/mol/M
denaturant midpoint (higher = more stable): 1.48 M
unfolding free energy: 3.28 kcal/mol
